Results on 1 substance are retold here after patent US20020081293A1.

The target of test [1] is human factor D purified from human serum (human) (UniProt P00746). Nature of the test: SPR (BIAcore), MAb captured by rabbit anti-mouse IgG, factor D as analyte. (In general: SPR reads the build-up and loss of mass on a sensor chip optically.)
Test [2] shares this target. Nature of the test: cell-based or functional assay.
For test [3], the target named is dog factor D (in serum) (dog). Nature of the test: cell-based or functional assay. As to conditions: scale: times less effective than on human factor D.
The target in test [4] is human factor D purified from human serum (human) (UniProt P00746). Nature of the test: SPR (BIAcore), factor D amine-coupled to the chip, MAb 166-32 as analyte.

Chain of UniProt P00746 (P00746 26-253): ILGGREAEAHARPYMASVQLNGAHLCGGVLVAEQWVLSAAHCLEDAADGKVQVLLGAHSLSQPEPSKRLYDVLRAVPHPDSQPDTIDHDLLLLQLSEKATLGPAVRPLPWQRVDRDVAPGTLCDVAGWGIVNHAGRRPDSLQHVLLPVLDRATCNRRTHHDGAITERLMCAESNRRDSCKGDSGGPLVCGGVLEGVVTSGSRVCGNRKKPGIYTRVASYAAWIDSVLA

In test [1], monoclonal antibody 166-32 yielded a Kd of less than 0.1 nM, an off-rate constant (koff) of 0.00011 s⁻¹ and a kon of more than 1e+06 M⁻¹ s⁻¹. For the same substance, in test [2], the inhibition of factor D dependent hemolysis of unsensitized rabbit RBCs (factor D depleted human serum with 0.1 µg/ml supplemented factor D) turned out to be 0.3 µg/mL, the molar ratio for complete inhibition of alternative complement activity in extracorporeal circuit plasma (18 µg/ml MAb) (molar ratio (MAb : factor D)) worked out at 1.5 and the molar ratio for inhibition of factor D dependent hemolysis (molar ratio (MAb 166-32 to factor D)) was determined as 0.5. The same substance had a neutralization of dog factor D in hemolytic assays, against human factor D in test [3] of 10. In test [4], this substance gave a Kd of 0.16 nM, a koff of 7.6e-05 s⁻¹ and a kon of 460000 M⁻¹ s⁻¹.

What is called Kd is the free concentration of one partner at which half of the binding sites on the other are occupied at equilibrium, for simple one-to-one binding. One may read the koff as the first-order rate constant of dissociation. For orientation: kon means the rate constant with which the complex forms.
